Laboratory results reported in patent US20230235054A1 (BIOATLA, published 2023).

T1: human Nectin-4 on cells (human, UniProt Q96NY8 32-510)
T1 construct: whole, on cells; also called HEK293 cells expressing human Nectin-4; T47D cells that express human Nectin-4
T1 sequence (looked up): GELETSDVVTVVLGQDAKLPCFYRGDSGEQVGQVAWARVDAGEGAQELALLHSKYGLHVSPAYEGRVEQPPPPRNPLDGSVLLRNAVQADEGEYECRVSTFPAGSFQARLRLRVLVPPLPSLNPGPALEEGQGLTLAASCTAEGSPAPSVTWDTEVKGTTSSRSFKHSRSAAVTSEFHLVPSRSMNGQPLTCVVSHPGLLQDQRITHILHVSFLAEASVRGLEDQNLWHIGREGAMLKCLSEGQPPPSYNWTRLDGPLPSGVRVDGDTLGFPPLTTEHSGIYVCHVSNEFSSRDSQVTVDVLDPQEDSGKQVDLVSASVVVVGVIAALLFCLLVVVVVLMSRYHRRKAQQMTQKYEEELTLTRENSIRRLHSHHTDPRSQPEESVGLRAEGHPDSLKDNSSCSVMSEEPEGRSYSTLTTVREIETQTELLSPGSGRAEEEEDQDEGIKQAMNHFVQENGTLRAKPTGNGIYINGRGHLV

T2: huNectin4-His (human, UniProt Q96NY8 32-349)
T2 construct: Immobilized on the SPR chip; also called humanNectin4; human Nectin4; not shown: His tag
T2 sequence (looked up): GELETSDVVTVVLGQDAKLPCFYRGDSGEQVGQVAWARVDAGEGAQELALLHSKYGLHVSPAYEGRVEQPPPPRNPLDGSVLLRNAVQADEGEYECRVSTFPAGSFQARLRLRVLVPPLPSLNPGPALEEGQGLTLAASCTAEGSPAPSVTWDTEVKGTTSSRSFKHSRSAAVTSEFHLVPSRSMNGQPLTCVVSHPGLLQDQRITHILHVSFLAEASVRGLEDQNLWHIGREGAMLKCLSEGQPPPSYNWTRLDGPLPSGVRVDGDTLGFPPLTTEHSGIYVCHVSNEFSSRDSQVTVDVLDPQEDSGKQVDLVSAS

T3: cyno Nectin-4 on cells (cyno, UniProt A0A2K5WES1 32-510)
T3 construct: whole, on cells; also called HEK293 cells expressing cyno Nectin-4; cyno Nectin-4 cells
T3 sequence: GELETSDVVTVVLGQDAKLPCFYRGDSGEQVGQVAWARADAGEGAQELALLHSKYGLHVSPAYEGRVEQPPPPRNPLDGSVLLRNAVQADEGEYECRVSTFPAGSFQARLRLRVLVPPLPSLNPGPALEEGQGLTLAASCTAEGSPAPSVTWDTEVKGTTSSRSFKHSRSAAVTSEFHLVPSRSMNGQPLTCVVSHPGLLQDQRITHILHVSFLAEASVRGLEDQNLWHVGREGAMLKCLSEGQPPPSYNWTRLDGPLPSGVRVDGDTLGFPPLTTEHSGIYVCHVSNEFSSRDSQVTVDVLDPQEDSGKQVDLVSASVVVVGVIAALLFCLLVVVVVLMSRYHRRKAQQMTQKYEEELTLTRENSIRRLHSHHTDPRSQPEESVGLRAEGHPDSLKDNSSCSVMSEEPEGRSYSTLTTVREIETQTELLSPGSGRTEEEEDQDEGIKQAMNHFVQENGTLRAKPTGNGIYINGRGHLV

T4: cynoNectin4-mFc (cyno, UniProt A0A2K5WES1 32-349)
T4 construct: Immobilized on the SPR chip; also called cyanoNectin4; not shown: mFc (mouse Fc)
T4 sequence: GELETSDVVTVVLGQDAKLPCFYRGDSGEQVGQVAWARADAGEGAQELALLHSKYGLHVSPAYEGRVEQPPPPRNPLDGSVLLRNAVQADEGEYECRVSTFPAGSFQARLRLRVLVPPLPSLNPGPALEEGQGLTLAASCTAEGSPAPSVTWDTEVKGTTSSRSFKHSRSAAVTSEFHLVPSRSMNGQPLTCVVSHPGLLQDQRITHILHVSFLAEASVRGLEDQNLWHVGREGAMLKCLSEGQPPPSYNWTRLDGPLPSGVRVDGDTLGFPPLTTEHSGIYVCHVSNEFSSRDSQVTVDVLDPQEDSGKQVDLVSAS


What was measured:
human Nectin-4 on cells [1] = target: T1, human Nectin-4 on cells; experiment: FACS, HEK293 cells expressing human Nectin-4
Method: FACS analysis was carried out using HEK293 cells expressing human Nectin-4.

huNectin4-His [2] = target: T2, huNectin4-His; experiment: SPR, huNectin4-His immobilized, pH 7.4
Method: (§1) Binding kinetics of anti-Nectin4 antibodies were measured by surface plasmon resonance using a SPR2/4 instrument (Sierra Sensors, Hamburg, Germany) and flat amine sensor chips. The SPR sensor contained four flow cells (FC1-FC4), each of which was addressed individually or in groups. huNectin4-His was immobilized in FC2, and cynoNectin4-mFc in FC4. No protein was immobilized in FC1 and FC3 which were used as control surfaces for FC2 and FC4, respectively.
(§2) All injections were done at a flow rate of 25 μL/min at 25° C. The sensor surface was activated with 1-ethyl-3-(3-dimethylaminopropyl)-carbodiimide (EDC) and N-hydroxysuccinimide (NHS) (200 mM/50 mM) for 480 seconds. HuNectin4-His (2 μg/mL in 10 mM NaAc, pH4.5) was injected for 480s and the surface was inactivated by injecting 1M ethanolamine-HCl for 480s. CynoNectin4 was immobilized using the same conditions as described for huNectin4-His, except that the cynoNectin4 was diluted into 10 mM NaAc buffer having pH 5.0. The control surface was activated and deactivated using the same conditions, but without injecting protein. PBST buffer (PBS pH 7.4 with 0.05% TWEEN20™) was used as running buffer for the surface preparation. The running solution was switched to PBST with 30 mM sodium bicarbonate with the pH adjusted as indicated in the figures before the analyte injections. The instrument was equilibrated with the running solution for one hour before the first analyte injection.
(§3) The off-rate was measured for 360s. The chip surface was regenerated after each cycle of interaction analysis by injecting 6 μL of 10 mM glycine (pH 2.0). Flow cells 1 and 3 without immobilized protein were used as control surfaces for reference subtraction.

cyno Nectin-4 on cells = target: T3, cyno Nectin-4 on cells; experiment: FACS, HEK293 cells expressing cyno Nectin-4
cynoNectin4-mFc [3] = target: T4, cynoNectin4-mFc; experiment: SPR, cynoNectin4-mFc immobilized, pH 6.0
Method: as §1, §2, §3

cynoNectin4-mFc [4] = target: T4, cynoNectin4-mFc; experiment: SPR, cynoNectin4-mFc immobilized, pH 6.5
Method: as §1, §2, §3

huNectin4-His [5] = target: T2, huNectin4-His; experiment: SPR, huNectin4-His immobilized, pH 6.0
Method: as §1, §2, §3

human Nectin-4 on cells [6] = target: T1, human Nectin-4 on cells; experiment: FACS, T47D cells

Row | Binder | Ratio (pH 7.4/6.0) of EC50 (human Nectin-4 on cells [1]) | Kd (huNectin4-His [2]) | Ratio (pH 7.4/6.0) of EC50 (cyno Nectin-4 on cells) | Kd (cynoNectin4-mFc [3]) | Kd (cynoNectin4-mFc [4]) | Kd (huNectin4-His [5]) | Ratio (pH 7.4/6.0) of EC50 (human Nectin-4 on cells [6]) | koff (huNectin4-His [2]) | kon (huNectin4-His [2]) | koff (cynoNectin4-mFc [3]) | kon (cynoNectin4-mFc [3]) | koff (cynoNectin4-mFc [4]) | kon (cynoNectin4-mFc [4]) | koff (huNectin4-His [5]) | kon (huNectin4-His [5])
1 | BAP-143-wildtype (antibody, V domains shown, 150 kDa used in SPR; also called BAP143-00-00; benchmark (BM)) VH: EVQLVESGGGLVQPGGSLRLSCAASGFTFSSYNMNWVRQAPGKGLEWVSYISSSSSTIYYADSVKGRFTISRDNAKNSLSLQMNSLRDEDTAVYYCARAYYYGMDVWGQGTTVTVSS VL: DIQMTQSPSSVSASVGDRVTITCRASQGISGWLAWYQQKPGKAPKFLIYAASTLQSGVPSRFSGSGSGTDFTLTISSLQPEDFATYYCQQANSFPPTFGGGTKVEIK | 1.2 | 0.943 nM | 1.7 | 1.06 nM | 0.52 nM | 1.49 nM | 0.9 | – | – | – | – | – | – | – | –
2 | BAP-143-00-01 (antibody, V domains shown, Used as a conjugate with a linker payload (CAB ADC)) VH: EVQLVESGGGLVQPGGSLRLSCAASGFTFSSYNMNWVRQAPGKGLEWVSYISSSSSTIYYADSVKGRFTISRDNAKNSLSLQMNSLRDEDTAVYYCARAYYYGMDVWGQGTTVTVSS VL: DIQMTQSPSSVSASVGDRVTITCRASQGISGWEAWYQQKPGKAPKFLIYAASTLQSGVPSRFSGSGSGTDFTLTISSLQPEDFATYYCQQANSFPPTFGGGTKVEIK | 3.3 | 3.89 nM | 4.1 | 3.04 nM | 2.94 nM | 12.3 nM | 6.7 | 0.00267 s⁻¹ | 686000 M⁻¹ s⁻¹ | 0.00248 s⁻¹ | 817000 M⁻¹ s⁻¹ | 0.00134 s⁻¹ | 457000 M⁻¹ s⁻¹ | 0.00367 s⁻¹ | 298000 M⁻¹ s⁻¹
3 | BAP-143-00-02 (antibody, V domains shown, Used as a conjugate with a linker payload (CAB ADC)) VH: EVQLVESGGGLVQPGGSLRLSCAASGFTFSSYNMNWVRQAPGKGLEWVSYISSSSSTIYYADSVKGRFTISRDNAKNSLSLQMNSLRDEDTAVYYCARAYYYGMDVWGQGTTVTVSS VL: DIQMTQSPSSVSASVGDRVTITCRASQGISGWLAWYQQKPGKAPKFLIYAASTLQSGVPSRFSGSGSGTDFTLTISSLQPEDFATYYCQQANSEPPTFGGGTKVEIK | 1.6 | – | 2.3 | 5.46 nM | 4.71 nM | – | 2.9 | – | – | 0.00242 s⁻¹ | 443000 M⁻¹ s⁻¹ | 0.00179 s⁻¹ | 380000 M⁻¹ s⁻¹ | – | –
4 | BAP-143-00-03 (antibody, V domains shown, Used as a conjugate with a linker payload (CAB ADC)) VH: EVQLVESGGGLVQPGGSLRLSCAASGFTFSSYNMNWVRQAPGKGLEWVSYISSSSSTIYYADSVKGRFTISRDNAKNSLSLQMNSLRDEDTAVYYCARAYYYGMDVWGQGTTVTVSS VL: DIQMTQSPSSVSASVGDRVTITCRASQGISGWLAWYQQKPGKAPKFLIYAASTLQSGVPSRFSGSGSGTDFTLTISSLQPEDFATYYCQQANSFPDTFGGGTKVEIK | 2 | 2.45 nM | 3.6 | 2.33 nM | 1.86 nM | 6.02 nM | 3.6 | 0.0032 s⁻¹ | 1.31e+06 M⁻¹ s⁻¹ | 0.00235 s⁻¹ | 1.01e+06 M⁻¹ s⁻¹ | 0.00124 s⁻¹ | 668000 M⁻¹ s⁻¹ | 0.00122 s⁻¹ | 203000 M⁻¹ s⁻¹
5 | BAP-143-00-04 (antibody, V domains shown, Used as a conjugate with a linker payload (CAB ADC)) VH: EVQLVESGGGLVQPGGSLRLSCAASGFTFSSYNDNWVRQAPGKGLEWVSYISSSSSTIYYADSVKGRFTISRDNAKNSLSLQMNSLRDEDTAVYYCARAYYYGMDVWGQGTTVTVSS VL: DIQMTQSPSSVSASVGDRVTITCRASQGISGWLAWYQQKPGKAPKFLIYAASTLQSGVPSRFSGSGSGTDFTLTISSLQPEDFATYYCQQANSFPPTFGGGTKVEIK | 2.1 | 1.42 nM | 2.1 | 2.08 nM | 1.12 nM | 2.58 nM | 2.1 | 0.00525 s⁻¹ | 3.71e+06 M⁻¹ s⁻¹ | 0.00377 s⁻¹ | 1.82e+06 M⁻¹ s⁻¹ | 0.0018 s⁻¹ | 1.6e+06 M⁻¹ s⁻¹ | 0.00155 s⁻¹ | 602000 M⁻¹ s⁻¹
6 | BAP-143-00-05 (antibody, V domains shown, Used as a conjugate with a linker payload (CAB ADC)) VH: EVQLVESGGGLVQPGGSLRLSCAASGFTFSSYNMNWVRQAPGKGLEWVSYISSSSSTIYYADSVKGRFTISRDNAKNSLSLQMNSLRDEDTAVYYCAEAYYYGMDVWGQGTTVTVSS VL: DIQMTQSPSSVSASVGDRVTITCRASQGISGWLAWYQQKPGKAPKFLIYAASTLQSGVPSRFSGSGSGTDFTLTISSLQPEDFATYYCQQANSFPPTFGGGTKVEIK | 1.7 | 5.09 nM | 2.5 | 7.02 nM | 3.96 nM | 6.37 nM | 2.4 | 0.0062 s⁻¹ | 1.22e+06 M⁻¹ s⁻¹ | 0.00449 s⁻¹ | 639000 M⁻¹ s⁻¹ | 0.00237 s⁻¹ | 599000 M⁻¹ s⁻¹ | 0.00242 s⁻¹ | 380000 M⁻¹ s⁻¹
7 | BAP-143-00-06 (antibody, V domains shown, Used as a conjugate with a linker payload (CAB ADC)) VH: EVQLVESGGGLVQPGGSLRLSCAASGFTFSSYNMNWVRQAPGKGLEWVSYISSSSSTIYYADSVKGRFTISRDNAKNSLSLQMNSLRDEDTAVYYCARAYYYGDDVWGQGTTVTVSS VL: DIQMTQSPSSVSASVGDRVTITCRASQGISGWLAWYQQKPGKAPKFLIYAASTLQSGVPSRFSGSGSGTDFTLTISSLQPEDFATYYCQQANSFPPTFGGGTKVEIK | 1.2 | 0.406 nM | 3.2 | 0.56 nM | 0.398 nM | 1.61 nM | 2.6 | 0.00143 s⁻¹ | 3.52e+06 M⁻¹ s⁻¹ | 0.00141 s⁻¹ | 2.52e+06 M⁻¹ s⁻¹ | 0.000769 s⁻¹ | 1.93e+06 M⁻¹ s⁻¹ | 0.00114 s⁻¹ | 707000 M⁻¹ s⁻¹
